Assay results reported in patent US20130089868A1.

Molecular target: MLS-NR2B (mitochondrial targeting signal sequence, myc-epitope, GST and NR2B residues 1271-1311) [GST: P08515]
Test: percentage of green fluorescent HEK-293 cells with GFP clustering after Ca^2+ influx (FIG. 5)

Substance: GFP-T286D-α-CaMKII (from UniProt P11275 1-478) (enzyme)
- fold increase of the cell count against wild-type GFP-α-CaMKII: > 2 fold
